Measurements from article PMC5111884, “NPAS1-ARNT and NPAS3-ARNT crystal structures implicate the bHLH-PAS family as multi-ligand binding transcription factors”.

What was measured:
NPAS3;ARNT = NPAS3;ARNT (mouse;mouse?, UniProt Q9QZQ0;P53762 56-455;82-464, |); experiment: fluorescence anisotropy; FP: 2 nM DNA, 20 mM Tris pH 8.0, 50 mM NaCl, 10 mM DTT, 30 min, temperature not stated (DNA annealed in 10 mM Tris pH 7.5, 1 mM EDTA, 2 mM MgCl2); conditions: protein: recombinant;recombinant; tags: vector pSJ2; copies: 1;1; blunt
NPAS1;ARNT = NPAS1;ARNT (mouse;mouse?, UniProt A2RSH6;P53762 43-423;82-464, |); experiment: as above; conditions: protein: recombinant;recombinant; tags: vector pSJ2; copies: 1;1; blunt
NPAS1;ARNT, sequence (chain, as listed by the source |, chain 1 of 2): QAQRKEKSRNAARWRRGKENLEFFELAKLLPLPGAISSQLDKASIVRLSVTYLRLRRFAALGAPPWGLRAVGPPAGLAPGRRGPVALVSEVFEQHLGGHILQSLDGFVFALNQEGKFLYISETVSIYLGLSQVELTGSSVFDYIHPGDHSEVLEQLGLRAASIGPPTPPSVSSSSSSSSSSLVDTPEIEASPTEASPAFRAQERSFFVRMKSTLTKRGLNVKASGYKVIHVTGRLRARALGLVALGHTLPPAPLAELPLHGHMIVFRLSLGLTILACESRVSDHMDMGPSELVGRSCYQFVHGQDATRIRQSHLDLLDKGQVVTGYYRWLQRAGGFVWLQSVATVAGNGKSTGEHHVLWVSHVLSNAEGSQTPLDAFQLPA
NPAS1;ARNT, sequence (P53762 82-464, chain 2 of 2): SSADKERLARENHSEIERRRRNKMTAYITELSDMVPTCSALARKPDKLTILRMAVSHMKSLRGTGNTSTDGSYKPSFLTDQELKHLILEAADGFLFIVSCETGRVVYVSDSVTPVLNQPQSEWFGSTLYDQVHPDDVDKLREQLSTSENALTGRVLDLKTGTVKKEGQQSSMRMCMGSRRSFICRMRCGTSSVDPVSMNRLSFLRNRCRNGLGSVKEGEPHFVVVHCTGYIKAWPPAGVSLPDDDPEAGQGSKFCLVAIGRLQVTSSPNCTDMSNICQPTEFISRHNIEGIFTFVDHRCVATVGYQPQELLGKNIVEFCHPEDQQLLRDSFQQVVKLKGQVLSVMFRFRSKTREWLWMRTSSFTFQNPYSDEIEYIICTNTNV

NPAS3;ARNT, sequence (Q9QZQ0 56-455, chain 1 of 2): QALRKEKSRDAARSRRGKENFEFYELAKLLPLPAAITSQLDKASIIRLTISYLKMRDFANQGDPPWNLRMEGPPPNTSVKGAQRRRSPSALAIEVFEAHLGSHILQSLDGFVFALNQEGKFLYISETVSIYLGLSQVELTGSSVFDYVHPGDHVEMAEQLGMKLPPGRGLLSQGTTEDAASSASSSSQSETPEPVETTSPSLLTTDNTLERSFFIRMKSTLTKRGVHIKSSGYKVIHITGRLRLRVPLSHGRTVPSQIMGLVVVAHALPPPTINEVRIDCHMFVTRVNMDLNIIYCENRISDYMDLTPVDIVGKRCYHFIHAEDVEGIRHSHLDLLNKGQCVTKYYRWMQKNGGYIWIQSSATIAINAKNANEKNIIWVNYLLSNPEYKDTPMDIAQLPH
NPAS3;ARNT, sequence (P53762 82-464, chain 2 of 2): as the sequence (P53762 82-464, chain 2 of 2) above

B1: HRE 21-mer (FP probe) (dsDNA)
DNA 1: GGCTGCGTACGTGCGGGTCGT
DNA 2: ACGACCCGCACGTACGCAGCC
For B1, the Kd (NPAS3;ARNT) was 17.5 ± 1.1 nM and the Kd (NPAS1;ARNT) was 16.3 ± 1.1 nM.
